Laboratory results as given in article PMC11130202.

Target: Spa2(281-535) (S. cerevisiae (budding yeast)) (UniProt P23201)
Experiment: AUC; sedimentation velocity; 20 mM HEPES pH 7.4, 50 mM NaCl, 20 °C; Spa2(281-535) 18 μM, Spa2(1-535) 13 μM, Spa2(1-281) 17 μM

Substance: Spa2(281-535) (from UniProt P23201 281-535) (domain or fragment)
- stoichiometry N: 2
